The target of assay [1] is T1, human lymphotoxin alpha homo-trimer (LT-α3) (human, UniProt P01374). Nature of the assay: ELISA. (In an ELISA, binding on a coated surface is turned into a signal by an enzyme label.)
Assay [2] has as its target T1, human lymphotoxin alpha homo-trimer …. The experiment in a line: SPR. For orientation: SPR reads the build-up and loss of mass on a sensor chip optically.
A further assay has as its target human LT-α3-biotin (human, UniProt P01374, biotin). The experiment in a line: ELISA.

T1 sequence (P01374 35-205): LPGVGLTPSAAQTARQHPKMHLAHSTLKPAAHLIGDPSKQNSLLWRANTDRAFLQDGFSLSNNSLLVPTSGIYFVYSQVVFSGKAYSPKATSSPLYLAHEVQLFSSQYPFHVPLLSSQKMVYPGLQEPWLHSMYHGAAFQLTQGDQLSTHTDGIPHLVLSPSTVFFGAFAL
Chain of human LT-α3-biotin (P01374 35-205): as above

B1: LT-3F12 anti-LT-α monoclonal antibody purified from mouse ascites (antibody, V domains shown)
VH: QGQLQQSGAELMKPGASVKISCKATGYTFSSYWIEWVKQRPGHGLEWIGEISPGSGSTNYNEEFKGKATFTADKSSNTAYIQLSSLTSEDSAVYYCADGYHGYWGQGTTLTVSS
VL: DIVMSQSPSSLAVSVGEKVTMSCKSSQSLLYSTNQKNFLAWYQQKPGQSPKLLIYWASTRDSGVPDRFTGSGSGTDFTLTISSVKAEDLAVYYCQQYYSYPRTFGGGTKLEIK
In assay [1], B1 registered an EC50 of 18 pM. In assay [2], this molecule gave a Kd of 300 pM. Further, the midpoint of inhibition in the assay with human LT-α3-biotin, the IC50, lay at 47000 pM.

B2: LT-3F12 rescued recombinant chimeric antibody (antibody, V domains shown)
VH: QGQLQQSGAELMKPGASVKISCKATGYTFSSYWIEWVKQRPGHGLEWIGEISPGSGSTNYNEEFKGKATFTADKSSNTAYIQLSSLTSEDSAVYYCADGYHGYWGQGTTLTVSS
VL: DIVMSQSPSSLAVSVGEKVTMSCKSSQSLLYSTNQKNFLAWYQQKPGQSPKLLIYWASTRDSGVPDRFTGSGSGTDFTLTISSVKAEDLAVYYCQQYYSYPRTFGGGTKLEIK
For the molecule B2, the EC50 in assay [1] worked out at 37 pM. This molecule also returned a Kd in assay [2] of 300 pM.

For orientation: EC50 means the midpoint of the concentration-response curve. Low readings indicate greater potency, high ones weaker potency. Broadly, the Kd is the constant that tells how readily two partners part at equilibrium. Low values mean a tighter complex, high ones a looser complex. One may read the IC50 as the midpoint of a concentration-inhibition curve. Low values mean greater potency in that assay, high ones weaker potency in that assay.

(Values after paper PMC3253889 (Proteomics, 2011).)
